Laboratory results published in paper PMC3386157, “G Protein Activation without a GEF in the Plant Kingdom” (PLoS Genetics, 2012).
Where a chain is given by its changes, count along the chain named.

Assays:
Test in all cases: SPR; BIAcore 2000; His-tagged AtRGS1 (284-459 aa) immobilised on sensor chip CM5 by amine coupling; AlF4-bound Gα flowed at 6.25-400 nM in running buffer with 20 mM NaF and 100 µM AlCl3; 25°C, 10 µl/min; 10 mM Hepes, 150 mM NaCl, 3 mM EDTA, 0.005% Tween-20, 100 µM GDP, 10 mM MgCl2; 1:1 Langmuir model
Conditions in all cases: both partners purified
OsRGA1-N195T = molecular target: T1, OsRGA1-N195T (Oryza sativa, UniProt Q0DJ33 1-380, N195T)
T1 construct: Oryza sativa heterotrimeric G protein alpha subunit OsRGA1 with N195T (switch I); printed as N191T in two paragraphs; also called OsRGA1-N191T; 195T mutant rice Gα subunit
T1 sequence (looked up): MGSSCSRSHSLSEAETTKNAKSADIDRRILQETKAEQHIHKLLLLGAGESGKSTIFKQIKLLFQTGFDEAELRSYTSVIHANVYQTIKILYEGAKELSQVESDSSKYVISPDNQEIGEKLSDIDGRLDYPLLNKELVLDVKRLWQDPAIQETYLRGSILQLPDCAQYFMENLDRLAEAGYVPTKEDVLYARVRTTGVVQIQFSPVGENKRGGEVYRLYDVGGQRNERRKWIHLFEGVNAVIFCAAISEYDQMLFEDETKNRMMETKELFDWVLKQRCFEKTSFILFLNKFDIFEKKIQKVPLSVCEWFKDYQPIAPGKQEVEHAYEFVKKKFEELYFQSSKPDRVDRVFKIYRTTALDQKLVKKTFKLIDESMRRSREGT

AtGPA1-T194N = molecular target: T2, AtGPA1-T194N (Arabidopsis thaliana, UniProt P18064 1-383, T194N)
T2 construct: Arabidopsis thaliana heterotrimeric G protein alpha subunit AtGPA1 with T194N (switch I); No tag cleavage is described; also called T194N mutant Arabidopsis Gα subunit
T2 sequence (looked up): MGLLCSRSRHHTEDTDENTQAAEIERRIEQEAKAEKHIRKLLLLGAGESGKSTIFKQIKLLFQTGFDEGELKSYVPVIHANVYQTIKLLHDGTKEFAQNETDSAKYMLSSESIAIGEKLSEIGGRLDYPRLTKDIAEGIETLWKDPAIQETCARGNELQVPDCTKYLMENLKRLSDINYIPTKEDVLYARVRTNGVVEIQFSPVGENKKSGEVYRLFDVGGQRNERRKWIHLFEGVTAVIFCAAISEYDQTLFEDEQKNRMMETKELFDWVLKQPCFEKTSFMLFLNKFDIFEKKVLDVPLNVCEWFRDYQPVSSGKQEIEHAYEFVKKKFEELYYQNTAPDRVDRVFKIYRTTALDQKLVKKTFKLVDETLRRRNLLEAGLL

OsRGA1 = molecular target: T3, OsRGA1 (Oryza sativa, UniProt Q0DJ33 1-380)
T3 construct: Oryza sativa heterotrimeric G protein alpha subunit OsRGA1; cDNA synthesized with codon usage optimised for E. coli; No tag cleavage is described; also called rice Gα; wild type rice Gα subunit
T3 sequence (looked up): T1 sequence (looked up) with T195N

His-AtGPA1 = molecular target: T4, His-AtGPA1 (Arabidopsis thaliana, UniProt P18064 1-383)
T4 construct: Arabidopsis thaliana heterotrimeric G protein alpha subunit AtGPA1; also called Arabidopsis thaliana Gα; wild type Arabidopsis Gα subunit; not shown: His6, N-terminal, kept
T4 sequence (looked up): T2 sequence (looked up) with N194T

B1: Recombinant His-AtRGS1 (284–459 aa) (domain or fragment, Arabidopsis thaliana, UniProt Q8H1F2 284-459, looked up)
chain: KEEFRPVDPNEPLDKLLLNKRFRHSFMEFADSCYAGETLHFFEEVYEHGKIPEDDSIRRIYMARHIMEKFIVAGAEMELNLSHKTRQEILTTQDLTHTDLFKNALNEVMQLIKMNLVRDYWSSIYFIKFKEEESCHEAMHKEGYSFSSPRLSSVQGSDDPFYQEHMSKSSRCSSPG
notes: Arabidopsis thaliana Regulator of G protein Signaling 1 (AtRGS1), residues 284-459
B1 showed a Kd (OsRGA1-N195T) of 4.83 nM, a koff (OsRGA1-N195T) of 0.00584 s⁻¹ and a kon (OsRGA1-N195T) of 1.21e+06 M⁻¹ s⁻¹. For the same binder, the Kd (AtGPA1-T194N) was 115 nM, the koff (AtGPA1-T194N) was 0.0134 s⁻¹ and the kon (AtGPA1-T194N) was 117000 M⁻¹ s⁻¹. It also gave a Kd (OsRGA1) of 56.7 nM, a koff (OsRGA1) of 0.0217 s⁻¹ and a kon (OsRGA1) of 383000 M⁻¹ s⁻¹. For the same binder, the Kd (His-AtGPA1) was 17.4 nM, the koff (His-AtGPA1) was 0.00616 s⁻¹ and the kon (His-AtGPA1) was 353000 M⁻¹ s⁻¹.
